Test results as given in patent publication US20230303689A1 (published 2023).
Numbering of substitutions follows the chain as printed. Read-outs that look alike come from different tables or passages of the source. Values belong to the binder of their own block, whether it stands above or below them.

How the values were obtained:
[1] = molecular target: T1, human PD-1 expressed on cells (HuT78/PD-1, NK92MI/PD-1) (human, UniProt Q15116 25-288); experiment: cell-based or functional assay
[2] = molecular target: P3Z chimeric PD-1 receptor on HuT78/P3Z cells (human); experiment: cell-based or functional assay
Chain of P3Z chimeric PD-1 receptor on HuT78/P3Z cells (human) (chain, as listed by the source mutant limits assumed): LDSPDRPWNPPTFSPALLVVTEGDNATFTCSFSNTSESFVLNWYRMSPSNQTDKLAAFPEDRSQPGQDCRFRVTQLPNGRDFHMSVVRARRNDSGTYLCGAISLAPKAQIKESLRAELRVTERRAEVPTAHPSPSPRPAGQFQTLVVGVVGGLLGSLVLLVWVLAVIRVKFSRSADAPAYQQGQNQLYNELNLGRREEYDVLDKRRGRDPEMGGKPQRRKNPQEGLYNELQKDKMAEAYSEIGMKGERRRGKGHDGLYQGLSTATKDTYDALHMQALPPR

[3] = molecular target: T1, human PD-1 expressed on cells …; experiment: cell-based or functional assay; remark: listed apart in the source
[4] = molecular target: T2, PD-1-EC/Fc (human); experiment: SPR (BIAcore T-200), mAb captured on anti-mouse Fc chip, PD-1/Fc injected
T2 construct: also called PD-1/Fc
T2 sequence (Q15116 21-168): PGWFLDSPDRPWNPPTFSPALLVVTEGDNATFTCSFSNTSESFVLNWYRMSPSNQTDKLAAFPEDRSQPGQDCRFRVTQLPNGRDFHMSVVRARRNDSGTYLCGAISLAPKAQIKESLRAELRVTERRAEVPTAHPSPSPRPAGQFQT
Protocol: Anti-mouse Fc CM5 biosensor chip (GE Healthcare) was generated using a standard primary amine coupling protocol. PD-1 mAbs at 0.3 µg/ml were captured on anti-mouse Fc surface for 1 min at 10 µl/min. […] Association rates (Kₐ or kₒₙ) and dissociation rates (Kd or koff) were calculated using the one-to-one Langmuir binding model (BIA Evaluation Software, GE Life Sciences). The equilibrium dissociation constant (KD) was calculated as the ratio koff/kₒₙ.

[5] = molecular target: T1, human PD-1 expressed on cells …; experiment: FACS on PD-1-expressing cells

T1 sequence (Q15116 25-288): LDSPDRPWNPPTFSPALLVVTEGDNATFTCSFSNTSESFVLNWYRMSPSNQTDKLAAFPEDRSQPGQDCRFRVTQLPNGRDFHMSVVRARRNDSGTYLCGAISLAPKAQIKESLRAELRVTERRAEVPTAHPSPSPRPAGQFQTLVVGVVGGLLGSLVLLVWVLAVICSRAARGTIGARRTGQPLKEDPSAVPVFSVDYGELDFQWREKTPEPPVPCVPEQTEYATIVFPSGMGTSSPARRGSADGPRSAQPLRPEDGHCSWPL

B2: ch317 (chimeric antibody from mu317, human IgG2/kappa) (antibody, V domains shown, not shown: a dimerising Fc or GST)
VH: QVQLKESGPGLVAPSKNLSITCTVSGFSLTSYGVHWIRQPPGKGLEWLGVIWAGGSTNYNSALMSRLSISKDNSRSQVFLRMNSLQTDDTAMYYCARAYGNYWYIDVWGAGTTVTVSS
VL: DIVMTQTPKFLLVSAGDRVTITCKASQSVSNDVAWYQQKPGQSPKLLINYAFHRFTGVPDRFTGSGYGTDFIFTISTVQAEDLAVYFCHQAYSSPYTFGGGTKLEMKR
- Assay-1, IL-2 release HuT78/PD-1 + HEK293/OS8/PD-L1: Baseline [1]: 82 pg/mL

B3: hu326-1 (humanized, human IgG2/kappa) (antibody, V domains shown, not shown: a dimerising Fc or GST)
VH: QVQLVQSGSELKKPGASVKVSCKASGYTFTNYGMNWVRQAPGQGLEWMGWINNNNGEPTYAQGFRGRFVFSLDTSASTAYLQISSLKTEDTAVYFCARDVMDYWGQGTTVTVSS
VL: DIVLTQSPASLAVSPGQRATITCRASESVDNYGYSFMHWYQQKPGQPPKLLIYRASNLESGVPARFSGSGSRTDFTLTINPVEANDTANYYCQQSKEYPTFGGGTKVEIKR
- Assay-1, IL-2 release HuT78/PD-1 + HEK293/OS8/PD-L1: Baseline [3]: 283 pg/mL

B5: ch326 (chimeric antibody from mu326, human IgG2/kappa) (antibody, V domains shown)
VH: QIQLVQSGPELKKPGETVKISCKASGYTFTNYGMNWVKQAPGKGLKWMGWINNNNGEPTYAEEFKGRFAFSLETSASTAYLQINNLKNEDTATYFCARDVMDYWGQGTSVTVSS
VL: B3 VL with P15L, T22S, K49Q, V62I, D74G, N85D, T87V, N89T, V107L, I109V
notes: domain: human Ig kappa C-region; not shown: human IgG2 constant region
- Assay-1, IL-2 release HuT78/PD-1 + HEK293/OS8/PD-L1: Baseline [3]: 250 pg/mL
- EC50 [5]: 0.72 µg/mL

B6: hu317-1 (humanized, human IgG2/kappa) (antibody, V domains shown, not shown: a dimerising Fc or GST)
VH: QVQLQESGPGLVKPSETLSLTCTVSGFSLTSYGVHWIRQPPGKGLEWLGVIWAGGSTNYNPSLKSRLTISKDNSKSQVSLKMSSVTAADTAVYYCARAYGNYWYIDVWGQGTTVTVSS
VL: DIVMTQSPDSLAVSLGERATINCKASQSVSNDVAWYQQKPGQPPKLLINYAFHRFTGVPDRFSGSGYGTDFTLTISSLQAEDVAVYYCHQAYSSPYTFGGGTKLEIKR
- Assay-1, IL-2 release HuT78/PD-1 + HEK293/OS8/PD-L1: Baseline [1]: 91 pg/mL

Second part, the binder after the results:

- Assay-1, IL-2 release HuT78/PD-1 + HEK293/OS8/PD-L1: Baseline [1]: 98 pg/mL
- Inhibition of IL-2 secretion, HuT78/P3Z + HEK293/PD-L1: IC50 [2]: 0.083 µg/mL
B1: murine mAb 317 (antibody, V domains shown)
VH: B2 VH
VL: DIVMTQTPKFLLVSAGDRVTITCKASQSVSNDVAWYQQKPGQSPKLLINYAFHRFTGVPDRFTGSGYGTDFIFTISTVQAEDLAVYFCHQAYSSPYTFGGGTKLEMK

- Inhibition of IL-2 secretion, HuT78/P3Z + HEK293/PD-L1: IC50 [2]: 0.039 µg/mL
- Assay-1, IL-2 release HuT78/PD-1 + HEK293/OS8/PD-L1: Baseline [3]: 242 pg/mL
- Kd [4]: 0.324 nM
- koff [4]: 7.79e-05 s⁻¹
- kon [4]: 240000 M⁻¹ s⁻¹
B4: murine mAb 326 (antibody, V domains shown)
VH: B5 VH
VL: DIVLTQSPASLAVSLGQRATISCRASESVDNYGYSFMHWYQQKPGQPPQLLIYRASNLESGIPARFSGSGSRTGFTLTINPVEADDVATYYCQQSKEYPTFGGGTKLEVK
notes: Murine hybridoma IgG; also called mu326
